{"source": "patent US20260263521A1", "about": "“ANTI-CD200R1 ANTIBODY AND USE THEREOF” (AIMED BIO INC., priority 2023, published 2026)", "key": {"[1]": {"molecular_target": "human CD200R1 expressed on cells (Jurkat-CD200R1, U937-CD200R1, HH cells) (human) (UniProt Q8TD46)", "sequence (Q8TD46 25-348)": "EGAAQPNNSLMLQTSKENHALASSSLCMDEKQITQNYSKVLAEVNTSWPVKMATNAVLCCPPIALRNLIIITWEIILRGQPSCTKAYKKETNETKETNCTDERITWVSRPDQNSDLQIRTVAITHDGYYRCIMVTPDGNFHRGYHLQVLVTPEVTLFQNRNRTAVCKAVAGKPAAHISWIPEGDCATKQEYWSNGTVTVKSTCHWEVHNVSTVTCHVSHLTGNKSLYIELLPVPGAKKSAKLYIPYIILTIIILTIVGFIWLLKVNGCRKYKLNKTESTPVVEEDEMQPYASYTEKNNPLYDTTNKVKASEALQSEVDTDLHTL", "test": "flow cytometry, HH cells; drawn table, row EC50"}, "[2]": {"molecular_target": "human CD200R1 expressed on cells (Jurkat-CD200R1, U937-CD200R1, HH cells) (human) (UniProt Q8TD46)", "test": "flow cytometry, HH cells; drawn table"}, "[3]": {"molecular_target": "human CD200R1 expressed on cells (Jurkat-CD200R1, U937-CD200R1, HH cells) (human) (UniProt Q8TD46)", "test": "cell-based or functional assay"}}, "note": "pEC50: −log10 of the molar value.", "data": [{"substance": "IgG1 (antibody)", "values": [{"measurement": "pEC50", "setting": "[1]", "result": 6.09}, {"measurement": "Geo mean (%) at 0.05 nM", "setting": "[2]", "result": 0.8, "unit": "%"}, {"measurement": "Geo mean (%) at 0.19 nM", "setting": "[2]", "result": 0.8, "unit": "%"}, {"measurement": "Geo mean (%) at 0.78 nM", "setting": "[2]", "result": 0.8, "unit": "%"}, {"measurement": "Geo mean (%) at 3.125 nM", "setting": "[2]", "result": 0.8, "unit": "%"}, {"measurement": "Geo mean (%) at 12.5 nM", "setting": "[2]", "result": 0.8, "unit": "%"}, {"measurement": "Geo mean (%) at 50 nM", "setting": "[2]", "result": 1, "unit": "%"}, {"measurement": "Geo mean (%) at 200 nM", "setting": "[2]", "result": 1.9, "unit": "%"}, {"measurement": "Geo mean (%) at 800 nM", "setting": "[2]", "result": 3.5, "unit": "%"}]}, {"substance": "LY3454738 (US 2020/0087395, I-4P, Eli Lilly) (antibody)", "values": [{"measurement": "EC50 (nM), degree of signal transduction by the Dok2 protein", "setting": "[3]", "result": "> 10000", "unit": "nM"}, {"measurement": "IC50 (nM) of IL-6 inhibition, LPS-treated U937-CD200R1 cells", "setting": "[3]", "result": 1.72, "unit": "nM"}, {"measurement": "IC50 (nM) of TNF-α inhibition, LPS-treated U937-CD200R1 cells", "setting": "[3]", "result": 6.03, "unit": "nM"}, {"measurement": "IL-6 (pg/ml) at log [Ab] (M) -7, LPS-treated U937-CD200R1 cells", "setting": "[3]", "result": 523, "unit": "pg/ml"}, {"measurement": "IL-6 (pg/ml) at log [Ab] (M) -8, LPS-treated U937-CD200R1 cells", "setting": "[3]", "result": 1330, "unit": "pg/ml"}, {"measurement": "IL-6 (pg/ml) at log [Ab] (M) -9, LPS-treated U937-CD200R1 cells", "setting": "[3]", "result": 2670, "unit": "pg/ml"}, {"measurement": "IL-6 (pg/ml) at log [Ab] (M) -10, LPS-treated U937-CD200R1 cells", "setting": "[3]", "result": 3380, "unit": "pg/ml"}, {"measurement": "IL-6 (pg/ml) at log [Ab] (M) -11, LPS-treated U937-CD200R1 cells", "setting": "[3]", "result": 3550, "unit": "pg/ml"}, {"measurement": "IL-6 (pg/ml) at log [Ab] (M) -12, LPS-treated U937-CD200R1 cells", "setting": "[3]", "result": 4530, "unit": "pg/ml"}, {"measurement": "RLU (a.u.), phosphorylated Dok2 reporter, antibody dose 0.05 nM", "setting": "[3]", "result": 9260, "unit": "a.u."}, {"measurement": "RLU (a.u.), phosphorylated Dok2 reporter, antibody dose 0.10 nM", "setting": "[3]", "result": 8400, "unit": "a.u."}, {"measurement": "RLU (a.u.), phosphorylated Dok2 reporter, antibody dose 0.20 nM", "setting": "[3]", "result": 8000, "unit": "a.u."}, {"measurement": "RLU (a.u.), phosphorylated Dok2 reporter, antibody dose 0.39 nM", "setting": "[3]", "result": 8960, "unit": "a.u."}, {"measurement": "RLU (a.u.), phosphorylated Dok2 reporter, antibody dose 0.78 nM", "setting": "[3]", "result": 8900, "unit": "a.u."}, {"measurement": "RLU (a.u.), phosphorylated Dok2 reporter, antibody dose 1.56 nM", "setting": "[3]", "result": 9100, "unit": "a.u."}, {"measurement": "RLU (a.u.), phosphorylated Dok2 reporter, antibody dose 3.13 nM", "setting": "[3]", "result": 9470, "unit": "a.u."}, {"measurement": "RLU (a.u.), phosphorylated Dok2 reporter, antibody dose 6.25 nM", "setting": "[3]", "result": 8930, "unit": "a.u."}, {"measurement": "RLU (a.u.), phosphorylated Dok2 reporter, antibody dose 12.5 nM", "setting": "[3]", "result": 13000, "unit": "a.u."}, {"measurement": "RLU (a.u.), phosphorylated Dok2 reporter, antibody dose 25 nM", "setting": "[3]", "result": 22700, "unit": "a.u."}, {"measurement": "RLU (a.u.), phosphorylated Dok2 reporter, antibody dose 50 nM", "setting": "[3]", "result": 25600, "unit": "a.u."}, {"measurement": "TNF-α (pg/ml) at log [Ab] (M) -7, LPS-treated U937-CD200R1 cells", "setting": "[3]", "result": 472, "unit": "pg/ml"}, {"measurement": "TNF-α (pg/ml) at log [Ab] (M) -8, LPS-treated U937-CD200R1 cells", "setting": "[3]", "result": 1040, "unit": "pg/ml"}, {"measurement": "TNF-α (pg/ml) at log [Ab] (M) -9, LPS-treated U937-CD200R1 cells", "setting": "[3]", "result": 1480, "unit": "pg/ml"}, {"measurement": "TNF-α (pg/ml) at log [Ab] (M) -10, LPS-treated U937-CD200R1 cells", "setting": "[3]", "result": 3760, "unit": "pg/ml"}, {"measurement": "TNF-α (pg/ml) at log [Ab] (M) -11, LPS-treated U937-CD200R1 cells", "setting": "[3]", "result": 4950, "unit": "pg/ml"}, {"measurement": "TNF-α (pg/ml) at log [Ab] (M) -12, LPS-treated U937-CD200R1 cells", "setting": "[3]", "result": 5490, "unit": "pg/ml"}]}, {"substance": "hIgG4 kappa isotype control (Crownvivo, #C0004) (antibody)", "values": [{"measurement": "IL-6 (pg/ml) at log [Ab] (M) -7, LPS-treated U937-CD200R1 cells", "setting": "[3]", "result": 3510, "unit": "pg/ml"}, {"measurement": "TNF-α (pg/ml) at log [Ab] (M) -7, LPS-treated U937-CD200R1 cells", "setting": "[3]", "result": 5090, "unit": "pg/ml"}]}]}
